Four variants from IntAct's records for PubMed 31515488 can be followed below.

B1: Nebulette (Homo sapiens), O76041 (parent)
chain: MRVPVFEDIKDETEEEKIGEEENEEDQVFYKPVIEDLSMELARKCTELISDIRYKEEFKKSKDKCTFVTDSPMLNHVKNIGAFISEAKYKGTIKADLSNSLYKRMPATIDSVFAGEVTQLQSEVAYKQKHDAAKGFSDYAHMKEPPEVKHAMEVNKHQSNISYRKDVQDTHTYSAELDRPDIKMATQISKIISNAEYKKGQGIMNKEPAVIGRPDFEHAVEASKLSSQIKYKEKFDNEMKDKKHHYNPLESASFRQNQLAATLASNVKYKKDIQNMHDPVSDLPNLLFLDHVLKASKMLSGREYKKLFEENKGMYHFDADAVEHLHHKGNAVLQSQVKYKEEYEKNKGKPMLEFVETPSYQASKEAQKMQSEKVYKEDFEKEIKGRSSLDLDKTPEFLHVKYITNLLREKEYKKDLENEIKGKGMELNSEVLDIQRAKRASEMASEKEYKKDLESIIKGKGMQAGTDTLEMQHAKKAAEIASEKDYKRDLETEIKGKGMQVSTDTLDVQRAKKASEMASQKQYKKDLENEIKGKGMQVSMDIPDILRAKRTSEIYSQRKYKDEAEKMLSNYSTIADTPEIQRIKTTQQNISAVFYKKEVGAGTAVKDSPEIERVKKNQQNISSVKYKEEIKHATAISDPPELKRVKENQKNISNLQYKEQNYKATPVSMTPEIERVRRNQEQLSAVKYKGELQRGTAISDPPELKRAKENQKNISNVYYRGQLGRATTLSVTPEMERVKKNQENISSVKYTQDHKQMKGRPSLILDTPAMRHVKEAQNHISMVKYHEDFEKTKGRGFTPVVDDPVTERVRKNTQVVSDAAYKGVHPHIVEMDRRPGIIVDLKVWRTDPGSIFDLDPLEDNIQSRSLHMLSEKASHYRRHWSRSHSSSTFGTGLGDDRSEISEIYPSFSCCSEVTRPSDEGAPVLPGAYQQSHSQGYGYMHQTSVSSMRSMQHSPNLRTYRAMYDYSAQDEDEVSFRDGDYIVNVQPIDDGWMYGTVQRTGRTGMLPANYIEFVN
B2: MTRF1L release factor glutamine methyltransferase (Homo sapiens), Q9Y5R4 (parent)
chain: MELWGRMLWALLSGPGRRGSTRGWAFSSWQPQPPLAGLSSAIELVSHWTGVFEKRGIPEARESSEYIVAHVLGAKTFQSLRPALWTQPLTSQQLQCIRELSSRRLQRMPVQYILGEWDFQGLSLRMVPPVFIPRPETEELVEWVLEEVAQRSHAVGSPGSPLILEVGCGSGAISLSLLSQLPQSRVIAVDKREAAISLTHENAQRLRLQDRIWIIHLDMTSERSWTHLPWGPMDLIVSNPPYVFHQDMEQLAPEIRSYEDPAALDGGEEGMDIITHILALAPRLLKDSGSIFLEVDPRHPELVSSWLQSRPDLYLNLVAVRRDFCGRPRFLHIRRSGP
partner: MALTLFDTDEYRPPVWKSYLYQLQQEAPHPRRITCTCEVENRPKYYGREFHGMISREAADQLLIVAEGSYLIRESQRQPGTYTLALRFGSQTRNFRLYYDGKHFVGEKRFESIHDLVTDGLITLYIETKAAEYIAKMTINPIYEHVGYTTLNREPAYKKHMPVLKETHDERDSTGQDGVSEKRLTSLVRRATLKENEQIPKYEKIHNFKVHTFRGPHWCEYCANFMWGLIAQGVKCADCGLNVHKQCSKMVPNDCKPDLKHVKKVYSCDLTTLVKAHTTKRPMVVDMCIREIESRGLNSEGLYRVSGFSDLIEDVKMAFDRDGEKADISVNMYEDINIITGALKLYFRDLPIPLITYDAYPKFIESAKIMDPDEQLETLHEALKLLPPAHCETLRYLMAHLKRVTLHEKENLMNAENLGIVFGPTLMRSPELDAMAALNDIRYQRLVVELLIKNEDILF
B3: Golgin-45 (Homo sapiens), Q9H2G9 (parent)
chain: MTTKNLETKVTVTSSPIRGAGDGMETEEPPKSVEVTSGVQSRKHHSLQSPWKKAVPSESPGVLQLGKMLTEKAMEVKAVRILVPKAAITHDIPNKNTKVKSLGHHKGEFLGQSEGVIEPNKELSEVKNVLEKLKNSERRLLQDKEGLSNQLRVQTEVNRELKKLLVASVGDDLQYHFERLAREKNQLILENEALGRNTAQLSEQLERMSIQCDVWRSKFLASRVMADELTNSRAALQRQNRDAHGAIQDLLSEREQFRQEMIATQKLLEELLVSLQWGREQTYSPSVQPHSTAELALTNHKLAKAVNSHLLGNVGINNQKKIPSTVEFCSTPAEKMAETVLRILDPVTCKESSPDNPFFESSPTTLLATKKNIGRFHPYTRYENITFNCCNHCRGELIAL

One assay covers variants of B1. The note with it: with traf2_human TRAF2, Q12933.
Chain of traf2_human TRAF2, Q12933 (Q12933 whole entry): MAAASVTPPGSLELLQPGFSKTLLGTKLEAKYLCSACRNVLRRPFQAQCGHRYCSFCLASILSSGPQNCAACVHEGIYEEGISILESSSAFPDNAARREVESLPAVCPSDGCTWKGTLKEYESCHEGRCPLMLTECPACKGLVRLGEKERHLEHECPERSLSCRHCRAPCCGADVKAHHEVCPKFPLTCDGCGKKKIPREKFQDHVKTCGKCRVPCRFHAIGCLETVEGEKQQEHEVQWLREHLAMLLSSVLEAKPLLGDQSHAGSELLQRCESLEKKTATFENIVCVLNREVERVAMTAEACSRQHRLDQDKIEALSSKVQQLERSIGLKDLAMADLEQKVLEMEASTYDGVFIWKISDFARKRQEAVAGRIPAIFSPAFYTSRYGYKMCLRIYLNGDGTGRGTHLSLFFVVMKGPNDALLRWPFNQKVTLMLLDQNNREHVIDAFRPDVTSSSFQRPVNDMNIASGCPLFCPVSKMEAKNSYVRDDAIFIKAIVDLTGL
Turning to R613Q, the “effect of a mutation on the interaction” value is “with no effect”.
Same read-out and setting: for M351V the value was “with no effect”.

Another assay covers variants of B1. Particulars: with cc136_human CCDC136, Q96JN2.
Chain of cc136_human CCDC136, Q96JN2 (Q96JN2 whole entry): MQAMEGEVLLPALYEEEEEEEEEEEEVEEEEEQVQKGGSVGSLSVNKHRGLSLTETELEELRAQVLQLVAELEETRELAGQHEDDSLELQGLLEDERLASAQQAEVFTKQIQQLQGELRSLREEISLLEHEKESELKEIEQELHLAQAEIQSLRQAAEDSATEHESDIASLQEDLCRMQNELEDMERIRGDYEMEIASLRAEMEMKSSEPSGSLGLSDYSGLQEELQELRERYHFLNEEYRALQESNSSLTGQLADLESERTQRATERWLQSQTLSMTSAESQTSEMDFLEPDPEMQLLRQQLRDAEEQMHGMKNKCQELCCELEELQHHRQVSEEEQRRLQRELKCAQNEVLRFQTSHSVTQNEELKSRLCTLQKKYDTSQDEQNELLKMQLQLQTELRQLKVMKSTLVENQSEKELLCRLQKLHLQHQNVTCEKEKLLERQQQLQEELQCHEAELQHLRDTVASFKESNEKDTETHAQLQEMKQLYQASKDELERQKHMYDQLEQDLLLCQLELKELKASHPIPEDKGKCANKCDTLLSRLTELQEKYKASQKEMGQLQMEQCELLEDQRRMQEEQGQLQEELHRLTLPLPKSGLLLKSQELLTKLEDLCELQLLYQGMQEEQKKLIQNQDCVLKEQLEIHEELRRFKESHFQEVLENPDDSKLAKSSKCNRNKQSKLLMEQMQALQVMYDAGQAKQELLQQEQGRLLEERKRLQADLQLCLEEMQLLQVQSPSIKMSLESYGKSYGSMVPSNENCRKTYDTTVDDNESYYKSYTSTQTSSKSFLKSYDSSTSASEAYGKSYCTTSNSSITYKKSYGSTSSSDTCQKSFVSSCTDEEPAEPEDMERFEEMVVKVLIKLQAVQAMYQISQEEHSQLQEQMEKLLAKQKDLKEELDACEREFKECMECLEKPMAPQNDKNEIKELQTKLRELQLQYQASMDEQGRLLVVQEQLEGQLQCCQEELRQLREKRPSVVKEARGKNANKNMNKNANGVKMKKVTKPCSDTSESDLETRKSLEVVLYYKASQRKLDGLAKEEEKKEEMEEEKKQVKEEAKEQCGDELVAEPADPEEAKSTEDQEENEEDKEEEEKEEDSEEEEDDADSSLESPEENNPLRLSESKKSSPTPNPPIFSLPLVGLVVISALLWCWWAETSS
Take R613Q: the “effect of a mutation on the interaction” value was “with no effect”.
Still for that read-out and setting: for M351V the value was “with no effect”.

In another assay the parent is B1. The note with it: with traf1_human TRAF1, Q13077.
Chain of traf1_human TRAF1, Q13077 (Q13077 whole entry): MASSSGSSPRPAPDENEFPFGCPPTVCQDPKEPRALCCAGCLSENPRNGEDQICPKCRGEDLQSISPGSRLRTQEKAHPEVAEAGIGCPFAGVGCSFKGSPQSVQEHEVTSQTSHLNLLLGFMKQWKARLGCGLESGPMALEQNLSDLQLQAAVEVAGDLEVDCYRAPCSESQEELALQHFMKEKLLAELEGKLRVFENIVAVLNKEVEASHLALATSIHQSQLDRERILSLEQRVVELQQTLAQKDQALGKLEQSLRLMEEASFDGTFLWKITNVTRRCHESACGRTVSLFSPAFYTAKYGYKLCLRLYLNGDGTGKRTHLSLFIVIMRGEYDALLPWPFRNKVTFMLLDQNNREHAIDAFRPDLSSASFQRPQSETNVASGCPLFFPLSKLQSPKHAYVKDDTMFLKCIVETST
As for R613Q, the “effect of a mutation on the interaction” value is recorded as “with no effect”.
Same read-out and setting: the value for M351V was “with no effect”.

Another assay covers variants of B2. Particulars: with chin_human CHN1, P15882.
For MELWGRMLWALLSGPGRRGSTRGWAFSSWQPQPPLAGLSSAIELVSHWTGVFEKRGIPEARESSEYIVAHVLGAKTFQSLRPALWTQPLTSQQLQCIRELSSRRLQRMPVQYILGEWDFQGLSLRMVPPVFIPRPETEELVEWVLEEVAQRSHAVGSPGSPLILEVGCGSGAISLSLLSQLPQSRVIAVDKREAAISLTQENAQRLRLQDRIWIIHLDMTSERSWTHLPWGPMDLIVSNPPYVFHQDMEQLAPEIRSYEDPAALDGGEEGMDIITHILALAPRLLKDSGSIFLEVDPRHPELVSSWLQSRPDLYLNLVAVRRDFCGRPRFLHIRRSGP [H200Q], the “effect of a mutation on the interaction” value is “disrupting interaction strength”.

Variants of B3 are the subject of another assay. Particulars: with aakb2_human PRKAB2, O43741.
Chain of aakb2_human PRKAB2, O43741 (O43741 whole entry): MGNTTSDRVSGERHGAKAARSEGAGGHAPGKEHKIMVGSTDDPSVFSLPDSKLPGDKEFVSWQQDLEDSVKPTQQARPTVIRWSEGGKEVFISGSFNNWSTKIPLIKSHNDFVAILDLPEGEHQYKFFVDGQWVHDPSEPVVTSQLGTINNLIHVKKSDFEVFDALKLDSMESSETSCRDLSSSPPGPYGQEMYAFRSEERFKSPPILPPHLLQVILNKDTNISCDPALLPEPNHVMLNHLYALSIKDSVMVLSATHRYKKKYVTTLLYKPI
Regarding MTTKNLETKVTVTSSPIRGAGDGMETEEPPKSVEVTSGVQSRKHRSLQSPWKKAVPSESPGVLQLGKMLTEKAMEVKAVRILVPKAAITHDIPNKNTKVKSLGHHKGEFLGQSEGVIEPNKELSEVKNVLEKLKNSERRLLQDKEGLSNQLRVQTEVNRELKKLLVASVGDDLQYHFERLAREKNQLILENEALGRNTAQLSEQLERMSIQCDVWRSKFLASRVMADELTNSRAALQRQNRDAHGAIQDLLSEREQFRQEMIATQKLLEELLVSLQWGREQTYSPSVQPHSTAELALTNHKLAKAVNSHLLGNVGINNQKKIPSTVEFCSTPAEKMAETVLRILDPVTCKESSPDNPFFESSPTTLLATKKNIGRFHPYTRYENITFNCCNHCRGELIAL [H45R], the “effect of a mutation on the interaction” value is on record as “with no effect”.

In the next assay the parent is B3. The note with it: with rab2a_human RAB2A.
Turning to MTTKNLETKVTVTSSPIRGAGDGMETEEPPKSVEVTSGVQSRKHRSLQSPWKKAVPSESPGVLQLGKMLTEKAMEVKAVRILVPKAAITHDIPNKNTKVKSLGHHKGEFLGQSEGVIEPNKELSEVKNVLEKLKNSERRLLQDKEGLSNQLRVQTEVNRELKKLLVASVGDDLQYHFERLAREKNQLILENEALGRNTAQLSEQLERMSIQCDVWRSKFLASRVMADELTNSRAALQRQNRDAHGAIQDLLSEREQFRQEMIATQKLLEELLVSLQWGREQTYSPSVQPHSTAELALTNHKLAKAVNSHLLGNVGINNQKKIPSTVEFCSTPAEKMAETVLRILDPVTCKESSPDNPFFESSPTTLLATKKNIGRFHPYTRYENITFNCCNHCRGELIAL [H45R], the “effect of a mutation on the interaction” value is reported as “with no effect”.

The variants in a further assay derive from B3. Particulars: with zbt24_human ZBTB24, O43167.
Chain of zbt24_human ZBTB24, O43167 (O43167 whole entry): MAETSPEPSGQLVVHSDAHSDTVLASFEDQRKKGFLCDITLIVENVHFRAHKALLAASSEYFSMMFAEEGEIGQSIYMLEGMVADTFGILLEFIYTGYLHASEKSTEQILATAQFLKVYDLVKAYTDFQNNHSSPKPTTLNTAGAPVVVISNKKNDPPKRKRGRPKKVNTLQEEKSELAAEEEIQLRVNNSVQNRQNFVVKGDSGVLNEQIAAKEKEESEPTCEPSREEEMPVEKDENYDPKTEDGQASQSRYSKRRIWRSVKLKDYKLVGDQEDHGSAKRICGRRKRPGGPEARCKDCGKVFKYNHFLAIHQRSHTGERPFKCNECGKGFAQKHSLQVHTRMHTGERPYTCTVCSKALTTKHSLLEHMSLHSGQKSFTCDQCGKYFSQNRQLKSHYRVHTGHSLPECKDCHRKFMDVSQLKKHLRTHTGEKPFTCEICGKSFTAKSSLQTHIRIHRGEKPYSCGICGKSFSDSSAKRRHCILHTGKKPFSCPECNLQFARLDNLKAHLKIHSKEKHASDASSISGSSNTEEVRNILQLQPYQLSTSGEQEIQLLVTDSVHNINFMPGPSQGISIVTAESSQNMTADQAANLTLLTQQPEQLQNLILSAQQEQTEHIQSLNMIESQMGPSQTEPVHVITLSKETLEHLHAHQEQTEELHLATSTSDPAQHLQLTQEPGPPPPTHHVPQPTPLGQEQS
Regarding MTTKNLETKVTVTSSPIRGAGDGMETEEPPKSVEVTSGVQSRKHRSLQSPWKKAVPSESPGVLQLGKMLTEKAMEVKAVRILVPKAAITHDIPNKNTKVKSLGHHKGEFLGQSEGVIEPNKELSEVKNVLEKLKNSERRLLQDKEGLSNQLRVQTEVNRELKKLLVASVGDDLQYHFERLAREKNQLILENEALGRNTAQLSEQLERMSIQCDVWRSKFLASRVMADELTNSRAALQRQNRDAHGAIQDLLSEREQFRQEMIATQKLLEELLVSLQWGREQTYSPSVQPHSTAELALTNHKLAKAVNSHLLGNVGINNQKKIPSTVEFCSTPAEKMAETVLRILDPVTCKESSPDNPFFESSPTTLLATKKNIGRFHPYTRYENITFNCCNHCRGELIAL [H45R], the “effect of a mutation on the interaction” value is recorded as “with no effect”.
